Experimental data from PMC4924701.

Target: GADS (UniProt O75791)
Assay: anti-FLAG co-IP, Western blot
Conditions: reference: wild-type FLT3

binding against the reference (sites Y955) | binding against the reference (sites Y955,Y969) | Substance
weaker | – | FLT3 (from UniProt P36888) FLT3-Y955F
– | lost | FLT3 (from UniProt P36888) FLT3-Y955F-Y969F
